Starred links: 1 amine or outer side, 2 acyl side, 3 side chain; linkers in the order of their positions; H or OH if unused. Positions of bridges follow the written chain, without caps; N, C: chain ends. *: point of attachment. TATA = O=C(CC[*:1])N1CN(C(=O)CC[*:2])CN(C(=O)CC[*:3])C1; Pent4ynoyl = C#CCCC(=O)*
Target: T1, Recombinant biotinylated human P-Selectin protein (human, UniProt P16109 42-771, limits assumed, biotinylated (site not stated))
T1 sequence (looked up): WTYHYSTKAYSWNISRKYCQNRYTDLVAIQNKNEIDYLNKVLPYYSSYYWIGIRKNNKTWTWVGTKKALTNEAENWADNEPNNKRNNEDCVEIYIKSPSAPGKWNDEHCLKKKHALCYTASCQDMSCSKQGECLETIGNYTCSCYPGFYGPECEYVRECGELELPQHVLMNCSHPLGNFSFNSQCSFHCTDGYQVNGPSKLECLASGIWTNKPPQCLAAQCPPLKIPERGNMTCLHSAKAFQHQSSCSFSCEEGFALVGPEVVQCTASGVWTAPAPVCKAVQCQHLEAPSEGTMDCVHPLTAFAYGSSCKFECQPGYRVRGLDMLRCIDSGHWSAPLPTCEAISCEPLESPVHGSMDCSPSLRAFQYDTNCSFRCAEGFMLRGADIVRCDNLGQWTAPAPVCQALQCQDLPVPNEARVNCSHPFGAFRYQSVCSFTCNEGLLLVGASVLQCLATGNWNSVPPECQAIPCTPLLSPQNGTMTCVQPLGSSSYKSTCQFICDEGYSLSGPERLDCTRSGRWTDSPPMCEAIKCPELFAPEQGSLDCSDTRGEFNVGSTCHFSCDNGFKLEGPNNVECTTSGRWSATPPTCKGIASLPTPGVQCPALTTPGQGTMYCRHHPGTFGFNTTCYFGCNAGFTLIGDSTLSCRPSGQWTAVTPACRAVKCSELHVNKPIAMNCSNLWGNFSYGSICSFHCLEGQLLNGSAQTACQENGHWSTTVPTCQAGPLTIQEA
Assay: SPR (Biacore), biotinylated human P-selectin captured on streptavidin chip, peptide as analyte; peptide BCY5455, a separate peptide number
Protocol: Biacore experiments were performed to determine ka (M−1s−1), kd (s−1), KD (nM) values of monomeric peptides binding to human Selectin proteins. Recombinant biotinylated human P-Selectin protein was used. For analysis of binding, either a Biacore 3000 or 5200 instrument was used with a CMS sensor chip (GE Healthcare). For sensor chip surface preparation, streptavidin was immobilized on the chip using standard amine-coupling chemistry at 25° C. with HBS-N (10 mM HEPES, 0.15 M NaCl, pH 7.4) as the running buffer. The carboxymethyl dextran surface was activated with a 12 min injection of a 1:1 ratio of 0.4 M 1-ethyl-3-(3-dim ethyl aminopropyl) carbodiimide hydrochloride (EDC)/0.1 M N-hydroxy succinimide (NHS) at a flow rate of 10 μl/min. For capture of streptavidin, protein was diluted to 0.2 mg/ml in 10 mM sodium acetate (pH 4.5) and captured by injecting 70 μl onto the activated chip surface. Residual activated groups were blocked with a 7 min injection of 1 M ethanolamine (pH 8.5). Biotinylated protein stock was diluted 1:100 in HBS-N and captured on one flow cell at 5 μl/min to a level of 1000-1500 RU. Buffer was changed to PBS/0.05% Tween 20 and a dilution series of the peptides was prepared in this buffer with a final DMSO concentration of 0.5%. […] In all cases a titration was performed with either seven 2-fold dilutions or five 3-fold dilutions. […]

B1: BCY5455 (peptide)
peptide: Pent4ynoyl-ACYMEWCDVTDYGCA-NH2
modifications: linker 2-7-14 via TATA; also: tandem dimer of 2 copies via central hinge C (GTA) and spacer S1A n=23 joined to N-terminal Pya
Kd: 1250 nM

From patent US20220339289A1 (Bicycle, published 2022)
